# Measured values reported in patent US20040053872, “New sequences” (published 2004).
# Legend:
# HIV-1 RT reference [1] = molecular target: T1, HIV-1 RT reference (HIV-1 subtype B (clone BH10), UniProt P03366;P03366 P03366:600-1159,P03366:600-1039); test: inhibition; second strand DNA synthesis, 33 C
# HIV-1 RT reference [2] = molecular target: T1, HIV-1 RT reference; test: competition; BIC50, RT binding to primer; 33 C
# HIV-1 RT reference [3] = molecular target: T1, HIV-1 RT reference; test: inhibition; RNA-dependent DNA polymerisation, 33 C; conditions: hairpin
# HIV-1 RT reference [4] = molecular target: T1, HIV-1 RT reference; test: competition; BIC50, RT binding to template/primer; 33 C
# HIV-1 RT reference [5] = molecular target: T1, HIV-1 RT reference; test: inhibition; RNA-dependent DNA polymerisation, preincubated 30 min, 33 C; conditions: two stem-loops (D and anticodon)
# [6] = two stem-loops (D and anticodon)
binder,measurement,setting,value
"CAGACUUUUAAUCUG (ssRNA, PS all linkages) [compound 198 (15-mer anticodon stem-loop)]",IC50,HIV-1 RT reference [1]; hairpin,550 nM
same,IC50,HIV-1 RT reference [2]; hairpin,100 nM
same,IC50,HIV-1 RT reference [3],470 nM
same,IC50,HIV-1 RT reference [4]; hairpin,900 nM
GCUCAGUCGGUAGAGCAUCAGACUUUUAAUCUGAG (ssRNA) [compound 199],IC50,HIV-1 RT reference [1]; [6],40 nM
same,IC50,HIV-1 RT reference [2]; [6],2 nM
same,IC50,HIV-1 RT reference [4]; [6],7 nM
same,IC50,HIV-1 RT reference [5],6.6 nM
